Laboratory results taken from patent US20050064533.

What was measured:
[1] = biological target: recombinant C-terminal 90 amino acids of human HIF-1a, C of the hydroxylation motif changed to alanine, Q16665
[2] = biological target: recombinant C-terminal 90 amino acids of human HIF-1a, glutamic acid (E) of the hydroxylation motif changed to alanine, Q16665
[3] = biological target: recombinant C-terminal 90 amino acids of human HIF-1a, D of the hydroxylation motif changed to alanine, Q16665
[4] = biological target: recombinant C-terminal 90 amino acids of human HIF-1a, wild type, Q16665
[5] = biological target: recombinant C-terminal 90 amino acids of human HIF-1a, conserved G 5 amino acids C-terminal to the target asparagine changed to alanine, Q16665
[6] = biological target: recombinant C-terminal 90 amino acids of human HIF-1a, valine preceding the target asparagine changed to alanine, Q16665
[7] = biological target: recombinant C-terminal 90 amino acids of human HIF-1a, tyrosine (Y) of the hydroxylation motif changed to alanine, Q16665
Sequence of recombinant C-terminal 90 amino acids of human HIF-1a, tyrosine (Y) of the hydroxylation motif changed to alanine, Q16665 (Q16665 737-826 Y798A): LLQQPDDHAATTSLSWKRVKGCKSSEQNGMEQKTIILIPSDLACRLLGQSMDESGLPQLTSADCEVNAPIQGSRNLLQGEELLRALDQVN

Sequence of recombinant C-terminal 90 amino acids of human HIF-1a, D of the hydroxylation motif changed to alanine, Q16665 (Q16665 737-826 D799A): as the sequence (Q16665 737-826 Y798A) above, with A62Y, D63A counted along it
Sequence of recombinant C-terminal 90 amino acids of human HIF-1a, glutamic acid (E) of the hydroxylation motif changed to alanine, Q16665 (Q16665 other isoform, or with tags, fused parts or gaps): as the sequence (Q16665 737-826 Y798A) above, with A62Y, E65A counted along it
Sequence of recombinant C-terminal 90 amino acids of human HIF-1a, conserved G 5 amino acids C-terminal to the target asparagine changed to alanine, Q16665 (Q16665 other isoform, or with tags, fused parts or gaps): as the sequence (Q16665 737-826 Y798A) above, with A62Y, G72A counted along it
Sequence of recombinant C-terminal 90 amino acids of human HIF-1a, wild type, Q16665 (Q16665 737-826): as the sequence (Q16665 737-826 Y798A) above, with A62Y counted along it
Sequence of recombinant C-terminal 90 amino acids of human HIF-1a, C of the hydroxylation motif changed to alanine, Q16665 (Q16665 737-826 C800A): as the sequence (Q16665 737-826 Y798A) above, with A62Y, C64A counted along it
Sequence of recombinant C-terminal 90 amino acids of human HIF-1a, valine preceding the target asparagine changed to alanine, Q16665 (Q16665 other isoform, or with tags, fused parts or gaps): as the sequence (Q16665 737-826 Y798A) above, with A62Y, V66A counted along it

B1: MBP (maltose binding protein) fused to wild type HIF Asparagine Hydroxylase (HNH) (protein)
chain: MAATAAEAVASGSGEPREEAGALGPAWDESQLRSYSFPTRPIPRLSQSDPRAEELIENEEPVVLTDTNLVYPALKWDLEYLQENIGNGDFSVYSASTHKFLYYDEKKMANFQNFKPRSNREEMKFHEFVEKLQDIQQRGGEERLYLQQTLNDTVGRKIVMDFLGFNWNWINKQQGKRGWGQLTSNLLLIGMEGNVTPAHYDEQQNFFAQIKGYKRCILFPPDQFECLYPYPVHHPCDRQSQVDFDNPDYERFPNFQNVVGYETVVGPGDVLYIPMYWWHHIESLLNGGITITVNFWYKGAPTPKRIEYPLKAHQKVAIMRNIEKMLGEALGNPQEVGPLLNTMIKGRYN
[1]
  hydroxylation in an in vitro hydroxylation assay: an up to 50% decrease in hydroxylation of the target aspargine
[2]
  hydroxylation in an in vitro hydroxylation assay: The glutamic acid (E) residue is more important or efficient hydroxylation than D or C
[3]
  hydroxylation in an in vitro hydroxylation assay: an up to 50% decrease in hydroxylation of the target aspargine
[4]
  hydroxylation assessed by counting liberated 14CO2: the degree of hydroxylation for each mutant normalised to the level observed for the wild type HIF-1α CAD sequence
[5]
  hydroxylation in an in vitro hydroxylation assay: an approximately 50% decrease in hydroxylation
[6]
  hydroxylation in an in vitro hydroxylation assay: altering this valine to alanine results in very low levels of hydroxylation
[7]
  hydroxylation in an in vitro hydroxylation assay: Substituting alanine in place of tyrosine (Y) has little effect
